Tests used:
Test in all cases: holdup assay
Parameters in all cases: key: below the threshold = too weak to quantify, mostly under pKd 3.1 to 4
DFNB31_2, Q9P202 = target: T1, DFNB31_2, Q9P202
T1 sequence (Q9P202 274-371, limits assumed, looked up): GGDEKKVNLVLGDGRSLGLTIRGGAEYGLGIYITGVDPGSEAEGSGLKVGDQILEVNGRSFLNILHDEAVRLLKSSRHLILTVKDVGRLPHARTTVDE

DFNB31_3, Q9P202 = target: T2, DFNB31_3, Q9P202
T2 sequence (Q9P202 811-907, limits assumed, looked up): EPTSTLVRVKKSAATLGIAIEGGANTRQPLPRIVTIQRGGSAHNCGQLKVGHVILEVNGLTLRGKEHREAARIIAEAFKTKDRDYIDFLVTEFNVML

DLG1_1, Q12959 = target: DLG1_1, Q12959
DLG3_3, Q92796 = target: T3, DLG3_3, Q92796
T3 sequence (Q92796 374-475, limits assumed, looked up): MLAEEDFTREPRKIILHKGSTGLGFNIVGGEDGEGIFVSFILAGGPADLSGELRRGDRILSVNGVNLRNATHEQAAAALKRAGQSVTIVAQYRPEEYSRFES

GRIP1_4, Q9Y3R0 = target: T4, GRIP1_4, Q9Y3R0
T4 sequence (Q9Y3R0 467-571, limits assumed, looked up): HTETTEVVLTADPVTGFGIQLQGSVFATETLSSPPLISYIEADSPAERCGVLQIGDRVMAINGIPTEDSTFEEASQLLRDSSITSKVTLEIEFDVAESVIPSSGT

GRIP1_5, Q9Y3R0 = target: T5, GRIP1_5, Q9Y3R0
T5 sequence (Q9Y3R0 568-668, limits assumed, looked up): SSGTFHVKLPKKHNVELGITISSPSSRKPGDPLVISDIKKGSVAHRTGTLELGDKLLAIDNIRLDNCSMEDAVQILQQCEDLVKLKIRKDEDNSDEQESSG

GRIP2_5, Q9C0E4 = target: GRIP2_5, Q9C0E4
Chain of GRIP2_5, Q9C0E4 (Q9C0E4 544-642): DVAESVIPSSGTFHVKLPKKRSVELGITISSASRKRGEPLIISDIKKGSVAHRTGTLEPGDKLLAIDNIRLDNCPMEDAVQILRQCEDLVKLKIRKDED

Inadl_2, Q8NI35 = target: Inadl_2, Q8NI35
Chain of Inadl_2, Q8NI35 (Q8NI35 238-335): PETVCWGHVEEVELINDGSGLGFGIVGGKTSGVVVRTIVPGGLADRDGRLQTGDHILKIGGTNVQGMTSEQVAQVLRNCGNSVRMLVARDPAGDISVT

LIN7B, Q9HAP6 = target: T6, LIN7B, Q9HAP6
T6 sequence (Q9HAP6 88-185, limits assumed, looked up): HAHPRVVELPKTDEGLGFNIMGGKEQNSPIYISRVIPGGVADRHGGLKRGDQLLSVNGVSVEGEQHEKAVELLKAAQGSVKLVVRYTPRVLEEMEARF

LNX1_3, Q8TBB1 = target: LNX1_3, Q8TBB1
Chain of LNX1_3, Q8TBB1 (Q8TBB1 500-596): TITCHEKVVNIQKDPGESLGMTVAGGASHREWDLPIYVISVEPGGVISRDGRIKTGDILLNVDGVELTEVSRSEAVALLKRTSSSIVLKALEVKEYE

LRRC7, Q96NW7 = target: T7, LRRC7, Q96NW7
T7 sequence (Q96NW7 1440-1537, limits assumed, looked up): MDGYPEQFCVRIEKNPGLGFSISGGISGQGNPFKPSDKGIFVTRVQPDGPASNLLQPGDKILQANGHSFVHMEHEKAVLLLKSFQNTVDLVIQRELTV

MAST2, Q6P0Q8 = target: MAST2, Q6P0Q8
Chain of MAST2, Q6P0Q8 (Q6P0Q8 1099-1202): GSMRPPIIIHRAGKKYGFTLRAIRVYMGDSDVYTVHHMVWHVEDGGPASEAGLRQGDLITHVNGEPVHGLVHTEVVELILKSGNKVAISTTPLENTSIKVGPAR

MPDZ_12, O75970 = target: T8, MPDZ_12, O75970
T8 sequence (O75970 1857-1958, limits assumed, looked up): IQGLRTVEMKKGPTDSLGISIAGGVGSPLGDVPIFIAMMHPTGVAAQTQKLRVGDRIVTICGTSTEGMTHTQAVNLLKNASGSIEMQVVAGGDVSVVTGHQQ

MPP2, Q14168 = target: T9, MPP2, Q14168
T9 sequence (Q14168 180-250, limits assumed, looked up): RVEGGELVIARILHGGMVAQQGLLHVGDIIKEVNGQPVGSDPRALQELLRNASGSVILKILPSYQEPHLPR

NHERF2_2, Q15599 = target: NHERF2_2, Q15599
Chain of NHERF2_2, Q15599 (Q15599 142-238): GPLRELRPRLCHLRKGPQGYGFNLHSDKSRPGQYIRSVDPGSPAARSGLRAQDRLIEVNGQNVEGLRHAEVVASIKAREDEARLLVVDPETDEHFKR

NHERF3_4, Q5T2W1 = target: T10, NHERF3_4, Q5T2W1
T10 sequence (Q5T2W1 373-468, limits assumed, looked up): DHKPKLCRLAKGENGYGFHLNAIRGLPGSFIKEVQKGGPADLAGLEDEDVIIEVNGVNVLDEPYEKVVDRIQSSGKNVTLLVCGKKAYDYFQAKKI

PARD3B_1, Q8TEW8 = target: T11, PARD3B_1, Q8TEW8
T11 sequence (Q8TEW8 196-299, limits assumed, looked up): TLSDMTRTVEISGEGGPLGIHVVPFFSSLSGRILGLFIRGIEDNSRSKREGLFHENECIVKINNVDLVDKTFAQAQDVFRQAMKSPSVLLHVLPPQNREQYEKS

PDZD2_2, O15018 = target: T12, PDZD2_2, O15018
T12 sequence (O15018 329-429, limits assumed, looked up): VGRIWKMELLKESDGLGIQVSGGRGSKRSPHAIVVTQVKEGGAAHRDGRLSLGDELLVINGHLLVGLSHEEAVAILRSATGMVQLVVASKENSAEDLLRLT

PDZRN4_1, Q6ZMN7 = target: PDZRN4_1, Q6ZMN7
Chain of PDZRN4_1, Q6ZMN7 (Q6ZMN7 213-318): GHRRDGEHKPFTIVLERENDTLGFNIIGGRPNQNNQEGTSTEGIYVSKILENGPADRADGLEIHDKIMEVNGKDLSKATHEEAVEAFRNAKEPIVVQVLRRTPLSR

RAPGEF6, Q8TEU7 = target: T13, RAPGEF6, Q8TEU7
T13 sequence (Q8TEU7 525-625, limits assumed, looked up): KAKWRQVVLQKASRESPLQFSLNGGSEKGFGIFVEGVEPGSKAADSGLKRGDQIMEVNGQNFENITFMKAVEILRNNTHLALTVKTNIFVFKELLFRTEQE

SCRIB_1, Q14160 = target: SCRIB_1, Q14160
Chain of SCRIB_1, Q14160 (Q14160 718-814): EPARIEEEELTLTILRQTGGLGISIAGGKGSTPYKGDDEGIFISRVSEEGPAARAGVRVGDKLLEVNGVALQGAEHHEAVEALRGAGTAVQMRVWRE

SCRIB_3, Q14160 = target: SCRIB_3, Q14160
Chain of SCRIB_3, Q14160 (Q14160 999-1103): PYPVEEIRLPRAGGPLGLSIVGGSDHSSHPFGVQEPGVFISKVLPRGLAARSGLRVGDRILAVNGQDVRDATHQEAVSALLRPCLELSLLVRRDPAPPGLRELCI

SNX27, Q96L92 = target: SNX27, Q96L92
TJP2_1, Q9UDY2 = target: TJP2_1, Q9UDY2
Chain of TJP2_1, Q9UDY2 (Q9UDY2 24-128): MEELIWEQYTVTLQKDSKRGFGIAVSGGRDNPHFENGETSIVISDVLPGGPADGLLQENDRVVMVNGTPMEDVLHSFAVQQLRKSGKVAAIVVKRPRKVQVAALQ

[1] = plain residues with an end cap or a label only (N-terminal biotin on a linker: ado-ado)
[2] = modified: phospho on T at position -1 from the C-terminal residue
[3] = modified: phospho on T at position -2 from the C-terminal residue

With GQSVDLVFPV [AKIP1, Q9NQ31] the pKd (DFNB31_2, Q9P202; [1]) was “below the threshold”, the pKd (DFNB31_3, Q9P202; [1]) was “below the threshold” and the pKd (DLG1_1, Q12959; [1]) was “below the threshold”. The pKd (DLG3_3, Q92796; [1]) was “below the threshold”, the pKd (GRIP1_4, Q9Y3R0; [1]) was “below the threshold” and the pKd (GRIP1_5, Q9Y3R0; [1]) was “below the threshold”. The pKd (GRIP2_5, Q9C0E4; [1]) was “below the threshold”, the pKd (Inadl_2, Q8NI35; [1]) was 3.51 and the pKd (LIN7B, Q9HAP6; [1]) was “below the threshold”. For the same binder, the pKd (LNX1_3, Q8TBB1; [1]) was 3.96, the pKd (LRRC7, Q96NW7; [1]) was “below the threshold” and the pKd (MAST2, Q6P0Q8; [1]) was 4.15. For the same binder, the pKd (MPDZ_12, O75970; [1]) was 3.58, the pKd (MPP2, Q14168; [1]) was “below the threshold” and the pKd (NHERF2_2, Q15599; [1]) was “below the threshold”. For the same binder, the pKd (NHERF3_4, Q5T2W1; [1]) was “below the threshold”, the pKd (PARD3B_1, Q8TEW8; [1]) was 3.8 and the pKd (PDZD2_2, O15018; [1]) was “below the threshold”. The pKd (PDZRN4_1, Q6ZMN7; [1]) was “below the threshold”, the pKd (RAPGEF6, Q8TEU7; [1]) was “below the threshold” and the pKd (SCRIB_1, Q14160; [1]) was “below the threshold”. The pKd (SCRIB_3, Q14160; [1]) was “below the threshold”, the pKd (SNX27, Q96L92; [1]) was 3.84 and the pKd (TJP2_1, Q9UDY2; [1]) was “below the threshold”.

In the case of RRVRKLPSTTL [RPS6KA1_-1P, Q15418], the pKd (DFNB31_2, Q9P202; [2]) is reported as “below the threshold”, the pKd (DFNB31_3, Q9P202; [2]) is reported as 3.78 and the pKd (DLG1_1, Q12959; [2]) is reported as 3.82. For the same binder, the pKd (DLG3_3, Q92796; [2]) was 3.63, the pKd (GRIP1_4, Q9Y3R0; [2]) was 3.36 and the pKd (GRIP1_5, Q9Y3R0; [2]) was “below the threshold”. The pKd (GRIP2_5, Q9C0E4; [2]) was “below the threshold”, the pKd (Inadl_2, Q8NI35; [2]) was 3.45 and the pKd (LIN7B, Q9HAP6; [2]) was 3.56. For the same binder, the pKd (LNX1_3, Q8TBB1; [2]) was 3.39, the pKd (LRRC7, Q96NW7; [2]) was 3.47 and the pKd (MAST2, Q6P0Q8; [2]) was 5.17. For the same binder, the pKd (MPDZ_12, O75970; [2]) was “below the threshold”, the pKd (MPP2, Q14168; [2]) was “below the threshold” and the pKd (NHERF2_2, Q15599; [2]) was 4.02. It also gave a pKd (NHERF3_4, Q5T2W1; [2]) of 3.75, a pKd (PARD3B_1, Q8TEW8; [2]) of 4.04 and a pKd (PDZD2_2, O15018; [2]) of 4.04. The pKd (PDZRN4_1, Q6ZMN7; [2]) was 4.31, the pKd (RAPGEF6, Q8TEU7; [2]) was 3.38 and the pKd (SCRIB_1, Q14160; [2]) was 4.02. The pKd (SCRIB_3, Q14160; [2]) was 4.61, the pKd (SNX27, Q96L92; [2]) was 3.92 and the pKd (TJP2_1, Q9UDY2; [2]) was “below the threshold”.

RRVRKLPSTTL [RPS6KA1_-2P, Q15418] was tested, and the pKd (DFNB31_2, Q9P202; [3]) was “below the threshold”, the pKd (DFNB31_3, Q9P202; [3]) was “below the threshold” and the pKd (DLG1_1, Q12959; [3]) was 3.58. For the same binder, the pKd (DLG3_3, Q92796; [3]) was “below the threshold”, the pKd (GRIP1_4, Q9Y3R0; [3]) was “below the threshold” and the pKd (GRIP1_5, Q9Y3R0; [3]) was “below the threshold”. For the same binder, the pKd (GRIP2_5, Q9C0E4; [3]) was “below the threshold”, the pKd (Inadl_2, Q8NI35; [3]) was “below the threshold” and the pKd (LIN7B, Q9HAP6; [3]) was “below the threshold”. The pKd (LNX1_3, Q8TBB1; [3]) was “below the threshold”, the pKd (LRRC7, Q96NW7; [3]) was “below the threshold” and the pKd (MAST2, Q6P0Q8; [3]) was “below the threshold”. For the same binder, the pKd (MPDZ_12, O75970; [3]) was “below the threshold”, the pKd (MPP2, Q14168; [3]) was “below the threshold” and the pKd (NHERF2_2, Q15599; [3]) was “below the threshold”. The pKd (NHERF3_4, Q5T2W1; [3]) was “below the threshold”, the pKd (PARD3B_1, Q8TEW8; [3]) was 3.9 and the pKd (PDZD2_2, O15018; [3]) was “below the threshold”. The pKd (PDZRN4_1, Q6ZMN7; [3]) was “below the threshold”, the pKd (RAPGEF6, Q8TEU7; [3]) was “below the threshold” and the pKd (SCRIB_1, Q14160; [3]) was “below the threshold”. For the same binder, the pKd (SCRIB_3, Q14160; [3]) was “below the threshold”, the pKd (SNX27, Q96L92; [3]) was “below the threshold” and the pKd (TJP2_1, Q9UDY2; [3]) was “below the threshold”.

Source: paper PMC9482650, “Quantitative fragmentomics allow affinity mapping of interactomes” (Nature Communications, 2022)
